Measurements as given in patent US20260055143A1, “HIGH AFFINITY VARIANTS OF SH2 DOMAINS” (Axoiya Inc., priority 2023, published 2026).

Experiments:
[1] = tested on: cancer cell signaling; conditions: expression of the autonomous domain; cited from earlier work
[2] = biological target: T1, ezrin phosphopeptide (PPV{pTyr}EPV (SEQ ID NO: 258)) (Homo sapiens, UniProt P15311); assay: Fluorescence polarization binding assay of purified Fes-SH2 variants with peptide pEZ
T1 construct: made in house; host or cells: peptide: chemical (Fmoc) synthesis; SH2 domains: Escherichia coli BL21(DE3)
Excerpt: Peptide were synthesized using 9-fluorenylmethoxycarbonyl chemistry with the Prelude peptide synthesizer (Gyros Protein Technologies, Inc., Tucson, AZ) on Rink amide MBHA resin (Novabiochem, London, GB). Each peptide N-terminus was functionalized with biotin through a linker composed of two F-aminocaproic acids (Bachem). N-hydroxysuccinimide-fluorescein was used for N-terminal fluorescein labeling of the synthesized Ezrin pTyr-peptide used in fluorescence polarization tests. All peptides were purified using C-18 reverse phase HPLC (Waters) and their identity was confirmed by mass spectrometry on an Orbitrap Elite (ThermoFisher). Phosphopeptides that were used in the study but not synthesized in house were from GenScript.
Fluorescence polarization assays were performed as previously described. Briefly, binding measurements were performed in FP buffer (25 mM HEPES pH 7.5, 100 mM NaCl, 1 mM DTT, 0.01 mg/ml BSA, 0.03% BRIJ-35) by mixing in a 96-well plate 25 nM FITC-labeled Ezrin pTyr-peptide with serial dilutions of Fes-SH2 variants ranging from 1 mM to 22 nM. Samples were equilibrated at room temperature for 30 minutes before reading plates on an HTS Multi-Mode Microplate Reader (Synergy Neo) using an excitation filter of 485 nm and an emission filter of 530 nm. Dissociation constants were determined with Prism (GraphPad Software Inc) using a one-site total binding model.

[3] = biological target: Ezrin peptide (PPV{pTyr}EPVS (SEQ ID NO: 257)) (Homo sapiens, UniProt P15311); assay: Competitive phage ELISA, Fes variants; format: binding; conditions: IC50-based, fold over Fes wt
Description: (§1) Competitive and non-competitive phage ELISAs were performed as previously described with minor modifications to the protocol. Peptide sequences used for these analyses can be found in Table 4.
(§2) Streptavidin (50 ng/well in TBS (50 mM Tris-HCl pH 8.0, 150 mM NaCl) was coated onto MAXISORP plates (Thermo Scientific). Phage binding was detected using HRP conjugated anti-M13 secondary antibody (1/2000 dilution, GE Healthcare) in TBS buffer containing 0.05% Tween-20 (TBT buffer). Phage binding was detected using the 3,3′,5,5′-tetramethylbenzidine (TMB) (Thermo Fisher Scientific) chromogenic substrate. Plates were read using a PowerWave XS microplate reader (BioTek).
(§3) Competitive phage-ELISAs were used to determine binding affinity of SH2 superbinders for their cognate target. ELISAs were performed as previously described, biotinylated and phosphorylated peptides were immobilized on plates at the concentration of 0.2 μM, and available binding sites on streptavidin were blocked by adding 25 μl/well of 50 μM D-biotin in TBS. […] Data were plotted using Prism 6 software (GraphPad Software Inc) and affinity of SH2 domains was inferred from determination of the half maximal inhibition concentration (IC50).

[4] = tested on: pMT peptide (EEPQ{pTyr}EEIPIY (SEQ ID NO: 181)); assay: Competitive phage ELISA, Src variants; format: binding; conditions: IC50-based, fold over Src wt
Description: as §1, §2, §3

[5] = biological target: QGVI{pTyr}SDLNLP (Homo sapiens, UniProt P26715); assay: Competitive ELISA, Ptn6_C variants; format: binding
Description: as §1, §2, §3
Peptides listed in Table 5 were used to assay for binding affinity of each corresponding SH2 domain.

B1: SuperSrc-SH2: SEQ ID 136: high affinity variant of the Src SH2 domain, BC loop SETVKGA (protein)
chain: MKIEEHHHHHHSSGKLGLNDIFEAQKIEWHESSGEDLYFQSGTTMDDYKDDDDKGGSDSIQAEEWYFGKITRRESERLLLNAENPRGTFLVRESETVKGAYALSVSDFDNAKGLNVKHYLIRKLDSGGFYITSRTQFNSLQQLVAYYSKHADGLCHRLTTVCPSR
effect on cancer cell signaling [1]: dominant negative effect

B2: wt: unmodified Fes SH2 domain, SEQ ID 21 (protein, listed as Homo sapiens)
chain: WYHGAIPRAEVAELLVHSGDFLVRESQGKQEYVLSVLWDGLPRHFIIQSLDNLYRLEGEGFPSIPLLIDHLLSTQQPLTKKSGVVLHRAV
IC50 ([2]; fluorescence polarization against the ezrin phosphopeptide): 1300 nM
Fold Change ([2]; fold enhancement in apparent affinity over wt Fes SH2): 1

B3: Fes^sSrc: SEQ ID 145: Fes SH2 domain with sSrc graft (protein)
chain: MKIEEHHHHHHSSGKLGLNDIFEAQKIEWHESSGEDLYFQSGTTMDDYKDDDDKGGSEVQKPLHEQLWYHGAIPRAEVAELLVHSGDFLVRESETVKGAYALSVLWDGLPRHFLIQSLDNLYRLEGEGFPSIPLLIDHLLSTQQPLTKKSGVVLHRAVPSR
enhancement of affinity of the domain (times) [3]: 650

B4: Src^sFes: SEQ ID 167: Src SH2 domain with sFes graft (protein)
chain: MKIEEHHHHHHSSGKLGLNDIFEAQKIEWHESSGEDLYFQSGTTMDDYKDDDDKGGSDGIQAEEWYFGKITRRESERLLLNAENPRGTFLVREGQSQPDYVLSVSDFDNAKGLNVKHYIIRKLDSGGFYITSRTQFNSLQQLVAYYSKHADGLCHRLTTVCPSR
enhancement of affinity of the domain (times) [4]: 125

B5: Ptn6_C^wt: wild-type PTN6_C SH2 domain, SEQ ID 59 (protein, listed as Homo sapiens)
chain: WYHGHMSGGQAETLLQAKGEPWTFLVRESLSQPGDFVLSVLSDQPKAGPGSPLRVTHIKVMCEGGRYTVGGLETFDSLTDLVEHFKKTGIEEASGAFVYLRQPY
change in affinity ([5]; with either the sSrc or sFes graft): no improvement in affinity
change in binding ([5]; αA-2-Arg mutation alone): not sufficient to enhance the binding
